Results: patent publication US7232805B2, “Cobalamin conjugates for anti-tumor therapy” (Inflabloc Pharmaceuticals, Inc., priority 2003, dated 2007)

Key:
HL-60 cells = assay: CellTiter-Glo Luminescent Cell Viability Assay, HL-60 cells; assay type: cell-based, human; details: HL-60, 96 hours, 100 μM down to 10 nM, FIG. 6c
Description: (§1) FIGS. 6a-6d depict the results of in vitro assays of the conjugate against four cell lines. FIG. 6A is a chart depicting the results of the conjugate against MCF-7 cells, cells derived from a human breast cancer cell line. FIG. 6B is a chart depicting the results of the conjugate against SK-BR-3 cells, cells derived from a human breast adenocarcinoma cell line. FIG. 6C is a chart depicting the results of the conjugate against HL-60 cells, cells derived from a human promyelocytic leukemia cell line. FIG. 6D is a chart depicting the results of the conjugate against SK-N-MC cells, cells derived from a human brain neuroblastoma (neuroepithelioma) cell line. […]
(§2) After 96 hours, the effects of doxorubicin and B12-S-doxorubicin on cell viability were determined using an assay from Promega. The CellTiter-Glo™ Luminescent Cell Viability Assay quantitates the ATP present in a culture, which correlates with metabolically active cells. Luminescence, which is dependent on ATP concentration, was measured for each individual well on a Wallac MicroBeta® JET Liquid Scintillation and Luminescence Counter. The average luminescence value of the three wells containing medium alone was subtracted from the raw data values to give corrected values. […] The three corrected values for wells dosed with the same concentration of compound were averaged and the standard deviation calculated. […]

[1] = tested on: normal murine lymph node cells; assay: CellTiter-Glo Luminescent Cell Viability Assay, normal murine lymph node cells; assay type: cell-based; details: 96 hours, FIG. 7
Description: FIG. 7 is a chart depicting the results of an in vitro assay of the conjugate against normal murine lymph node cells. The assay employed is the CellTiter-Glo™ Luminescent Cell Viability Assay from Promega Corporation, which is recognized in the art as being predictive of the effect of a compound on cell viability. The assay is detailed in Example 8. The method described by Promega Corporation (Technical Bulletin No. 288) was followed with no exceptions.
Doxorubicin and CobalaRubicin-200 stocks and stock solutions, prepared in 5% DMSO in water, were stored at −20° C. and protected from light. […]
as §2, with “calculated. Percent cell viability was calculated by considering the untreated cells as 100% viable.” for “calculated.”

SK-BR-3 cells = assay: CellTiter-Glo Luminescent Cell Viability Assay, SK-BR-3 cells; assay type: cell-based, human; details: SK-BR-3, 96 hours, 100 μM down to 10 nM, FIG. 6b
Description: as §1, §2

[2] = systemic toxicity / MTD of free doxorubicin versus conjugate on a molar basis (separate study); assay type: in vivo, mice

COc1cccc2c1C(=O)c1c(O)c3c(c(O)c1C2=O)C[C@@](O)(C(=O)CO)C[C@@H]3O[C@H]1C[C@H](NC(=O)OCc2ccc(NC(=O)[C@H](CCCCN)NC(=O)[C@H](Cc3ccccc3)NC(=O)CCCCCNC(=O)OC[C@H]3O[C@H](n4cnc5cc(C)c(C)cc54)[C@H](O)[C@@H]3OP(=O)(O)O[C@H](C)CNC(=O)CC[C@@]3(C)C4=C(C)C5=NC(=CC6=NC(=C(C)C7=N[C@@](C)([C@H](N4)[C@@H]3CC(N)=O)[C@@](C)(CC(N)=O)[C@@H]7CCC(N)=O)[C@@](C)(CC(N)=O)[C@@H]6CCC(N)=O)C(C)(C)[C@@H]5CCC(N)=O)cc2)[C@H](O)[C@H](C)O1 [conjugate 13, B12-5′-OCONH(CH2)5CO-Phe-Lys-PABC-Dox]
cell viability versus free doxorubicin (HL-60 cells): same effectiveness as doxorubicin and is slightly less potent than doxorubicin
cell viability versus free doxorubicin [1]: as effective as doxorubicin but shows slightly less potency than doxorubicin
cell viability versus free doxorubicin (SK-BR-3 cells): same effectiveness as doxorubicin and is slightly less potent than doxorubicin
lethality at the same high molar dose ([2]; free doxorubicin at the same high molar dose as the conjugate): not by the doxorubicin conjugate
dose higher than that of free doxorubicin on a molar basis, still with less systemic toxicity ([2]; molar basis): at least 2.3 time
